From paper PMC9015746

Experiments:
[1] = target: Bluetongue virus membrane penetration protein VP5 (in the purified BTV-1 virion) (bluetongue virus BTV-1); experiment: cryo-EM structure
[2] = target: Bluetongue virus core protein VP7 (in the purified BTV-1 virion) (bluetongue virus BTV-1); experiment: cryo-EM structure
[3] = target: purified wild-type VP5 protein (bluetongue virus BTV-1); experiment: SEC

In the case of “Bluetongue virus membrane penetration protein VP5 (in the purified BTV-1 virion) (natural protein)”, the stoichiometry N [1] is reported as 3.

Work on “Bluetongue virus core protein VP7 (in the purified BTV-1 virion) (natural protein)” yielded a stoichiometry N [2] of 3.

Work on “purified wild-type VP5 protein (natural protein)” yielded a stoichiometry N [3] of 3.
